Data as given in patent publication US7262289 (Bristol-Myers Squibb, dated 2007).

Molecular target: T1, human KCNQ3/KvLR2 (human, UniProt O43525 25-872)
T1 sequence: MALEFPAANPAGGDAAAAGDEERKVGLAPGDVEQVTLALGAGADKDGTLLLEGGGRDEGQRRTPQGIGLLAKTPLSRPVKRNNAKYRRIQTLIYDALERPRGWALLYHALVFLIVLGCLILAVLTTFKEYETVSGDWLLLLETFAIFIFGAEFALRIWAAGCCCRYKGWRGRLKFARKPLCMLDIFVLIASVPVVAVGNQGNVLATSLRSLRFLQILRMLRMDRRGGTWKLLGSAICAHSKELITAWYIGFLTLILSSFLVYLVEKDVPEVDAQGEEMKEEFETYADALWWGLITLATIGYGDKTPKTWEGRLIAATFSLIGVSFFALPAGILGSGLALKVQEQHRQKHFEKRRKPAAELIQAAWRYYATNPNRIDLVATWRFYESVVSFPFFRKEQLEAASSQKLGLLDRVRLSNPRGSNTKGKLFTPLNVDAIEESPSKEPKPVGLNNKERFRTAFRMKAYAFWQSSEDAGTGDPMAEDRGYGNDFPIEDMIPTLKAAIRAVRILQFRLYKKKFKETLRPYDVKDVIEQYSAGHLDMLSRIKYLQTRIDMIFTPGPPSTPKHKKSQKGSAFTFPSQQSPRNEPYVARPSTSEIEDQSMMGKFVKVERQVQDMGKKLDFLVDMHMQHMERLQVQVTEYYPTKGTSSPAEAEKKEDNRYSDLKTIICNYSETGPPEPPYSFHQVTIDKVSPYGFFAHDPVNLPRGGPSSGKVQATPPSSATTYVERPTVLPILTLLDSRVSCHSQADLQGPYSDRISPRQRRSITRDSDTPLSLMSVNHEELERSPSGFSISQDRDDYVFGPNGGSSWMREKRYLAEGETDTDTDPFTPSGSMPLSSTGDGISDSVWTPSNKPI
Test: cell-based or functional assay

- current amplitude in oocytes co-expressing KCNQ2 and KCNQ3 against oocytes injected with each channel alone (two-electrode voltage clamp): 15 fold
- shift of tail current reversal potential per 10-fold change in external K+ for KCNQ2+KCNQ3: 57 mV
B1: human KCNQ2/KvLR1 (other)
chain: MVQKSRNGGVYPGPSGEKKLKVGFVGLDPGAPDSTRDGALLIAGSEAPKRGSILSKPRAGGAGAGKPPKRNAFYRKLQNFLYNVLERPRGWAFIYHAYVFLLVFSCLVLSVFSTIKEYEKSSEGALYILEIVTIVVFGVEYFVRIWAAGCCCRYRGWRGRLKFARKPFCVIDIMVLIASIAVLAAGSQGNVFATSALRSLRFLQILRMIRMDRRGGTWKLLGSVVYAHSKELVTAWYIGFLCLILASFLVYLAEKGENDHFDTYADALWWGLITLTTIGYGDKYPQTWNGRLLAATFTLIGVSFFALPAGILGSGFALKVQEQHRQKHFEKRRNPAAGLIQSAWRFYATNLSRTDLHSTWQYYERTVTVPMYSSQTQTYGASRLIPPLNQLELLRNLKSKSGLAFRKDPPPEPSPSKGSPCRGPLCGCCPGRSSQKVSLKDRVFSSPRGVAAKGKGSPQAQTVRRSPSADQSLEDSPSKVPKSWSFGDRSRARQAFRIKGAASRQNSEASLPGEDIVDDKSCPCEFVTEDLTPGLKVSIRAVCVMRFLVSKRKFKESLRPYDVMDVIEQYSAGHLDMLSRIKSLQSRVDQIVGRGPAITDKDRTKGPAEAELPEDPSMMGRLGKVEKQVLSMEKKLDFLVNIYMQRMGIPPTETEAYFGAKEPEPAPPYHSPEDSREHVDRHGCIVKIVRSSSSTGQKNFSAPPAAPPVQCPPSTSWQPQSHPRQGHGTSPVGDHGSLVRIPPPPAHERSLSAYGGGNRASMEFLRQEDTPGCRPPEGTLRDSDTSISIPSVDHEELERSFSGFSISQSKENLDALNSCYAAVAPCAKVRPYIAEGESDTDSDLCTPCGPPPRSATGEGPFGDVGWAGPRK
